Results from patent US20250027073A1.

Target: Flu-m158-66-TCR, on Jurkat T cells

## Influenza M158-66 ([…]) presented by HLA-A0201, single-chain trimer of pMHC displayed on the lentiviral surface (from UniProt P61769 21-119) (peptide-MHC)
  percent of T cells GFP+: > 87%
